From article PMC7666158

B1: Sbit-ATF2(19–100), ATF2 TAD wild type (NanoBiT probe) [human] / Lbit-JNK1 (NanoBiT probe) [human] (parent)
chain 1: MSDDKPFLCTAPGCGQRFTNEDHLAVHKHKHEMTLKFGPARNDSVIVADQTPTPTRFLKNCEEVGLFNELASPFENEFKKAS
chain 2: MSRSKRDNNFYSVEIGDSTFTVLKRYQNLKPIGSGAQGIVCAAYDAILERNVAIKKLSRPFQNQTHAKRAYRELVLMKCVNHKNIIGLLNVFTPQKSLEEFQDVYIVMELMDANLCQVIQMELDHERMSYLLYQMLCGIKHLHSAGIIHRDLKPSNIVVKSDCTLKILDFGLARTAGTSFMMTPYVVTRYYRAPEVILGMGYKENVDLWSVGCIMGEMVCHKILFPGRDYIDQWNKVIEQLGTPCPEFMKKLQPTVRTYVENRPKYAGYSFEKLFPDVLFPADSEHNKLKASQARDLLSKMLVIDASKRISVDEALQHPYINVWYDPSEAEAPPPKIPDKQLDEREHTIEEWKELIYKEVMDLEERTKNGVIRGQPSPLGAAVINGSQHPSSSSSVNDVSSMSTDPTLASDTDSSLEAAAGPLGCCR

Variants of: B1
Test: NanoBit luciferase complementation in HEK293T cells
Details: with Lbit-JNK1 (NanoBiT probe) [human]; anisomycin (30 min); normalized to control (−) = 1.0; read off a plot; scale: relative luminescence intensity

response	Variant
1	chain 1 K30E
